T1: recombinant human RSPO3 protein (hRSPO3) (Homo sapiens, UniProt Q9BXY4)
T1 sequence (Q9BXY4 22-272): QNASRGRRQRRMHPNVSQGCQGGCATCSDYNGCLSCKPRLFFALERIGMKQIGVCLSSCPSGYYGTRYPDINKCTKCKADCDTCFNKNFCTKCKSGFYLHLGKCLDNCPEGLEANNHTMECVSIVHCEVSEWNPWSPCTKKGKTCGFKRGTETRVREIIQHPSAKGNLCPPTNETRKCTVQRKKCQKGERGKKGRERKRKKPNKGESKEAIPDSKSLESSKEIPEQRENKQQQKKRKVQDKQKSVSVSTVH

T2: RSPO3 / RNF43 binding (Homo sapiens, UniProt Q9BXY4)
T2 construct: purchased Peprotech (RSPO3); Sino Biological (RNF43-His) 16108-H08H (RNF43)
T2 sequence (Q9BXY4 22-272): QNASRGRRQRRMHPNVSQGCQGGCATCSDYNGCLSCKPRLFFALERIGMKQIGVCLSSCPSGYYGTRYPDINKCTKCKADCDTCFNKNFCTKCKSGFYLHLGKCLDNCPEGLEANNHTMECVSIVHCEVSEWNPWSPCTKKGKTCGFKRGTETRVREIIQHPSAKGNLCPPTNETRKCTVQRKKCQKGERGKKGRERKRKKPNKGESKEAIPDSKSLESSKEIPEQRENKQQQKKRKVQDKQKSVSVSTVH


Experiments:
DLD-1 cells = test: Wound healing (migration) assay in DLD-1 cells; type: cell-based, human; details: 100 μg/ml antibody, Wnt3a 20 ng/ml and RSPO3 50 ng/ml
Method: FIG. 11 is a graph showing the effects of different α-RSPO3 antibodies on wound healing in the DLD-1 cell model. The percentages of wound closure were calculated and shown in the bar graph.
DLD-1 cells were seeded at 40000 cells per well in Culture-Insert 2 Well (ibidi, Martinsried, Germany) with RPMI medium containing 10% FBS for 16 hours. After removing the culture insert, cells were either treated with 100 μg/ml control human IgG1 antibodies or 100 μg/ml anti-RSPO3 antibodies in low serum (0.5%) medium in the presence of 20 ng/ml Wnt3a and 50 ng/ml RSPO3. Samples were then subjected to live cell image time lapse microscopy system (Leica AF6000 LX) to observe migration of DLD-1 cells. Three positions of each well under 10× objective lens were selected at the beginning and phase images of these positions were acquired by Zyla 4.2 sCMOS camera every 30 minutes for up to 60 hours.

[1] = biological target: T1, recombinant human RSPO3 protein (hRSPO3); test: Biacore T200 binding kinetics to immobilized hRSPO3; details: for equilibrium dissociation constants, KD (in words): Biacore T200; for koff (1/s, *10^−5) / kon (1/Ms, *10^6): Biacore T200, 25° C., 1:1 model
Method: FIG. 7 is a graph showing use of Biacore to measure the binding kinetics of α-RSPO3 Abs-antigen interaction. The binding sensorgrams were generated using a Biacore T200 and then fitted to a simple 1:1 interaction model. A series of concentrations of hB1 (0.39-6.25 nM) were injected in a single-cycle with no regenerating of the surface between injections. The association was monitored for 2 min, and the final dissociation time was 15 min hRSPO3 was immobilized on a CM5 chip at 27.5 RU.
The binding kinetics between α-RSPO3 Abs and recombinant human RSPO3 protein (hRSPO3) were performed at 25° C. using a Biacore T200 biosensor equipped with a CM5 Series S Sensor Chip (GE Healthcare). Running buffer was HBS-EP Buffer (0.01 M HEPES pH 7.4, 0.15 M NaCl, 3 mM EDTA, 0.005% v/v Surfactant P20) with final pH 7.4. hRSPO3 protein was immobilized on CM5 sensor chips with coating densities of about 27.5 response units (RU). The α-RSPO3 Abs were serially diluted 2-fold from 6.25 nM to 0.39 nM in HBS-EP and were injected over the chip surface for 120 s each at a flow rate of 30 μL/min, followed by a final 900 s dissociation phase. Obtained sensorgrams were corrected by double subtracting the signal obtained on a reference surface and the signal of the running buffer. Sensograms were fit globally with BIAcore T200 evaluation software 3.0 using 1:1 binding model to yield affinity constants (KD values) for α-RSPO3 Abs. Replicate measurements were made in separate experiments, using independently prepared α-RSPO3 Abs dilution series and huRSPO3-coated chip surfaces.

RSPO3 / RNF43 binding = biological target: T2, RSPO3 / RNF43 binding; test: Competitive ELISA of RSPO3 binding to RNF43; details: RNF43-His 200 ng/ml, antibody 20 μg/ml
Source text: FIG. 10 is a set of graphs showing competitive binding of RSPO3 to LGR5 or RNF43 by different α-RSPO3 antibodies. To exam whether different α-RSPO3 antibodies might compete with the binding of RSPO3 to LGR5 or RNF43, recombinant hRSPO3 was coated on a plate. (A) Recombinant LGR5 (22-560)-Fc was conjugated with biotin to facilitate detection. Biotinylated LGR5 was then respectively mixed with various concentrations of either α-RSPO3 antibodies or isotype control Ab and applied to RSPO3-coated wells. Streptavidin-HRP was then added to detect bound biotinylated LGR5; and (B) Mixtures of recombinant His-tagged RNF43 and different α-RSPO3 antibodies, respectively, were applied to each RSPO3-coated wells. Mouse anti-His tag antibody-HRP was then added for detection of bound RNF43. […] The colorimetric reaction was then stopped by 2N HCL and the optical density at 450 nm of each well was determined immediately.
To exam whether different α-RSPO3 antibodies might compete with the binding of RSPO3 to RNF43, mixtures of recombinant Hig-tagged RNF43 (RNF43-His16108-H08H, Sino Biological) at 200 ng/ml and 20 μg/ml of different α-RSPO3 antibodies, respectively, were applied to each well. […] The colorimetric reaction was then stopped by 2N HCL and the optical density at 450 nm of each well were determined immediately.

equilibrium dissociation constants, KD (in words) [1]	koff (1/s, *10^−5) [1]	kon (1/Ms, *10^6) [1]	Molecule	wound healing activity of DLD-1 cells (DLD-1 cells)	competition with RNF43 for binding to RSPO3 (RSPO3 / RNF43 binding)
picomolar (pM) levels	3.4 ± 0.1 1/s, *10^−5	1.7 ± 0.8 1/Ms, *10^6	hB1: humanized α-RSPO3 antibody derived from murine clone B1; VH SEQ ID NO: 14, VL SEQ ID NO: 16 (antibody, V domains shown, Heavy chain variable region; Light chain variable region) VH: QIQLQESGPGLVKPSESLSLTCSVTGYSITSGYYWNWIRQFPGNGLEWMGYISYDGTNNYNPSLKDRISITRDTSKNQFFLKLNSVTAADTATYYCSVLLIQYFNIWGKGTTVTVSS VL: DIQMTQSPSSLSASVGERVTITCRTSESVNNFLAWFHQKPGKSPKLLVYHAKTLADGVSSRFSGSGSGTQYSLKINSLQPEDFGNYYCQHFWSIPWTFGGGTKLEIKR	able to inhibit wound healing activity	did not interfere with the binding between RNF43 and RSPO3
picomolar (pM) levels	18.1 ± 0.1 1/s, *10^−5	9.4 ± 1.8 1/Ms, *10^6	rosmantuzumab (antibody, chains of the INN, looked up, V domains shown) VH: QVQLVQSGAEVKKPGASVKVSCKASGYTFTDYSIHWVRQAPGQGLEWIGYIYPSNGDSGYNQKFKNRVTMTRDTSTSTAYMELSRLRSEDTAVYYCATYFANNFDYWGQGTTLTVSS VL: DIQMTQSPSSLSASVGDRVTITCKASQSVDYDGDSYMNWYQQKPGKAPKLLIYAASNLESGVPSRFSGSGSGTDFTLTISPVQAEDFATYYCQQSNEDPLTFGAGTKLELK	able to inhibit wound healing activity	did not interfere with the binding between RNF43 and RSPO3

From patent publication US11623951B2, “Antibodies to R-spondin 3” (National Health Research Institutes, priority 2017, dated 2023)
